From US20110190196A1 (University of California, published 2011)
Read-outs that look alike come from different tables or passages of the source. Each block holds one molecule with its values, some of them ahead of it.

Experiments:
Experiment in all cases: cell-based or functional assay
[1] = biological target: T1, ATP-binding cassette transporter A1 (ABCA1) (UniProt P41233 1-2261, limits assumed)
[2] = biological target: T1, ATP-binding cassette transporter A1 …; remark: listed apart in the source
[3] = biological target: T1, ATP-binding cassette transporter A1 …; remark: listed apart in the source
[4] = biological target: T1, ATP-binding cassette transporter A1 …; remark: listed apart in the source
[5] = biological target: T1, ATP-binding cassette transporter A1 …; remark: listed apart in the source
[6] = biological target: T1, ATP-binding cassette transporter A1 …; remark: listed apart in the source

T1 sequence (P41233 whole entry): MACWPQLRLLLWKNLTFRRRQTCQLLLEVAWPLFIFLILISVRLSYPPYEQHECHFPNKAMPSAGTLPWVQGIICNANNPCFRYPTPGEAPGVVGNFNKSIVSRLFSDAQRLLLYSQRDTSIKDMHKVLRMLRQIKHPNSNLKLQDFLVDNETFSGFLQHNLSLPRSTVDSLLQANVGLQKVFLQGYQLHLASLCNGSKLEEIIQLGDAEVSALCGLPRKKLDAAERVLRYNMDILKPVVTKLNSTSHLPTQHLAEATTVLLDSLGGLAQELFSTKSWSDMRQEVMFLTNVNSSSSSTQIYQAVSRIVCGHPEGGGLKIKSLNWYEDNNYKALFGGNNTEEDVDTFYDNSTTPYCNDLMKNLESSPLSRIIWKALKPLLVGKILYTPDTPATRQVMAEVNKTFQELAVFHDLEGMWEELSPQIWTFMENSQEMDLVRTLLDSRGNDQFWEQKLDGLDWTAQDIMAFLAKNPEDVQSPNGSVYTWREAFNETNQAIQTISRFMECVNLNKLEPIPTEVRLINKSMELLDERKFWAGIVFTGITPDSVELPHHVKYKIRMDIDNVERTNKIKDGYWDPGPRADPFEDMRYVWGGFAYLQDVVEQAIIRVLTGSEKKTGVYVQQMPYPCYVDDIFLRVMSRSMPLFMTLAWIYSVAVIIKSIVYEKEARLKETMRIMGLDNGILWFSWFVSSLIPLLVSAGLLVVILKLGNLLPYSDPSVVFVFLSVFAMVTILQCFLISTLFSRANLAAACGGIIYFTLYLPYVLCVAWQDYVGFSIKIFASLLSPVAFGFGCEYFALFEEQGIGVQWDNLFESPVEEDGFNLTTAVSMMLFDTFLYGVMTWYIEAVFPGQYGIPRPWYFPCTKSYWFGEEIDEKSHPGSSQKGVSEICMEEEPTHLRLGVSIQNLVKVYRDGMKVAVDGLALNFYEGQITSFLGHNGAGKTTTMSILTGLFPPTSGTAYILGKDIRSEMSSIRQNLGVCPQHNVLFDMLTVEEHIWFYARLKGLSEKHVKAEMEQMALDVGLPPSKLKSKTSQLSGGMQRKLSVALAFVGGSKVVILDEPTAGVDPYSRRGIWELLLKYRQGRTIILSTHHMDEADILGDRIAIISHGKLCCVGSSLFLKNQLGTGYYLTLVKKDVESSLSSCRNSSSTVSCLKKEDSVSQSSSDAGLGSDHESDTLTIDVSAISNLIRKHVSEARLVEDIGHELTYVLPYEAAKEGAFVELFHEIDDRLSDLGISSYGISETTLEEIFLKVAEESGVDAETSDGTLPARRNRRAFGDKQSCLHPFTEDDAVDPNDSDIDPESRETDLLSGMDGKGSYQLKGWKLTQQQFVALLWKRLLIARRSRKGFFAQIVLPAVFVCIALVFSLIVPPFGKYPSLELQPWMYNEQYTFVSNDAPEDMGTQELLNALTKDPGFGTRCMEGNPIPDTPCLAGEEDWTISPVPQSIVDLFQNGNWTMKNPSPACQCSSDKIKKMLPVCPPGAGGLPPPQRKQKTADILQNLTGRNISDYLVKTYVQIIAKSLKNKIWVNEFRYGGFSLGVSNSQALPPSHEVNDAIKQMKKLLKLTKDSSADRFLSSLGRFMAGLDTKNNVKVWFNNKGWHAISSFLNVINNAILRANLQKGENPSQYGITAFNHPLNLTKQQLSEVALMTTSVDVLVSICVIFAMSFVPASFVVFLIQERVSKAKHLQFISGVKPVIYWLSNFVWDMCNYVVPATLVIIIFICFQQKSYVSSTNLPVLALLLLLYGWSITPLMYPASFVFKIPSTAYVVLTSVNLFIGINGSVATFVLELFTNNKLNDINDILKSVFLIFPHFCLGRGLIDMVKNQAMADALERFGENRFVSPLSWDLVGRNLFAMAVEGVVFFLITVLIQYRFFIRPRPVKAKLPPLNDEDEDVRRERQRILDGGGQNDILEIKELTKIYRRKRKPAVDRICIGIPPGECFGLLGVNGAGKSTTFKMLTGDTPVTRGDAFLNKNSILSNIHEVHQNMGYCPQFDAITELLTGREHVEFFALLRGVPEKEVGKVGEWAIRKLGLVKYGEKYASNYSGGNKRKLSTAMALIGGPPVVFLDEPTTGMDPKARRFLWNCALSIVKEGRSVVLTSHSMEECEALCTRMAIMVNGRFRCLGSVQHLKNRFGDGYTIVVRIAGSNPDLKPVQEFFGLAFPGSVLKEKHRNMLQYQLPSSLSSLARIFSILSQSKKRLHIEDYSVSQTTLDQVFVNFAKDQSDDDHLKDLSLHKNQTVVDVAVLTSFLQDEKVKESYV

Km of cholesterol efflux stimulation, mass basis (4 h efflux data, cAMP-treated J774 cells) [1]: 3.4 µg/mL
Km of cholesterol efflux stimulation, molar basis [1]: 0.12
Molecule: lipid-free apolipoprotein(apo)A-I (from UniProt P02647 19-267) (ligand)

% cholesterol efflux/8 hours, No cAMP [2]: 3.06%
% cholesterol efflux/8 hours, Plus cAMP [2]: 9.88%
% cholesterol efflux/4 hours at 0.1 µg/ml [3]: 0%
% cholesterol efflux/4 hours at 0.3 µg/ml [3]: 1.92%
% cholesterol efflux/4 hours at 1.0 µg/ml [3]: 2.77%
% cholesterol efflux/4 hours at 3.0 µg/ml [3]: 5.28%
% cholesterol efflux/4 hours at 10 µg/ml [3]: 5.29%
% cholesterol efflux/4 hours at 30 µg/ml [3]: 3.53%
Molecule: DLRDRLDAWFDLFRDFLDRF [N1154-5]

% cholesterol efflux/4 hours at 0.1 µg/ml [4]: 0.15%
% cholesterol efflux/4 hours at 0.3 µg/ml [4]: 0.52%
% cholesterol efflux/4 hours at 1.0 µg/ml [4]: 1.72%
% cholesterol efflux/4 hours at 3.0 µg/ml [4]: 4.6%
% cholesterol efflux/4 hours at 10 µg/ml [4]: 3.62%
% cholesterol efflux/4 hours at 30 µg/ml [4]: 3.66%
efficiency of cholesterol efflux against apoA-I, mass basis [5]: ~5 fold
% cholesterol efflux/8 hours, +cAMP [6]: 5.26%
% cholesterol efflux/8 hours, -cAMP [6]: 2.29%
Molecule: ELREKLEAWFELFREFLERF [SEQ ID NO:2 peptide]
